Measured values published in US20250210128A1, “COMPUTER-IMPLEMENTED DESIGN OF PEPTIDE:RECEPTOR SIGNALING COMPLEXES FOR ENHANCED CHEMOTAXIS” (Ecole Polytechnique Federale de Lausanne (EPFL), priority 2022, published 2025).
Substitutions are numbered along the chain they refer to. Numbers in names are those of the source. One block for each molecule: values may come before it.

Experiments:
CXCR4 [1] = target: T1, CXCR4 (Homo sapiens, UniProt P61073, L41A); assay: Calcium mobilization assay in transfected HEK 293T cells; format: cell-based; details: peptide-induced, point mutation, FIG. 15A
T1 construct: WT CXCR4 with an N-terminal 3×HA-tag, Gβ3-WT, and GNA15 sub-cloned into pcDNA3.1+ were obtained from the cDNA Resource Center; host or cells: HEK 293T
Procedure: (§1) 40,000 HEK 293T cells were transiently transfected with 50 ng HA3-CXCR4, 10 ng GNA15 in pcDNA3.1+. To equalize receptor surface expression, 75 ng of HA3-CXCR4 for the Cdes2 Design variant. Cells were first seeded in 100 uL DMEM (Gibco, ref: 41965-039) 10% FBS in a black-walled, clear-bottom 96-well plate coated with poly-lysine (Sigma, P6407-5MG). Directly after cell loading, 50 uL of the mixture containing 0.5 μL Lipofectamine 2000 (Invitrogen, ref: 11668-019) and the DNA was added on top of the cells. The cells were then left to incubate at 37° C., 5% CO2, 95% relative humidity for 20 h, after which, media was refreshed with 150 uL DMEM+10% FBS. Cells were assayed 48 h post-transfection. Cells were washed with 200 μL FLIPR6 buffer (HBSS+20 mM HEPES, pH 7.4), then incubated at 37° C., 5% CO2, 95% relative humidity for 2 h in 200 μL dye buffer according to manufacturer's protocol. Just before the assay, 5× concentrated peptide solutions were prepared in FLIPR6 buffer in a V-bottom 96-well plate. After incubation, peptide solutions were added at a rate of 16 μL/s after 30 s and fluorescence changes were monitored for 90 s after addition using microplate reader FlexStation3 (Molecular Devices). The maximum response after correction by the mock-transfected condition was averaged from three replicates. […]

CXCR4 [2] = target: T2, CXCR4 (Homo sapiens, UniProt P61073, N37A/S285M/Y45F); assay: Gαi dissociation BRET (Gi activation) in transfected HEK 293T cells; format: cell-based; details: HEK cells; cell based assays reporting Gi activation and Ca2+ mobilization
T2 construct: WT CXCR4 with an N-terminal 3×HA-tag, Gβ3-WT, and GNA15 sub-cloned into pcDNA3.1+ were obtained from the cDNA Resource Center; host or cells: HEK 293T
Procedure: (§2) 40,000 HEK 293T cells were transiently transfected with HA3-CXCR4, Gαi1-91-Rluc8, Gβ3-WT and Gγ9-GFP2 in pcDNA3.1+ at a ratio of 10:1:10:5 respectively. Cells were first seeded in 100 μL DMEM 10% FBS in a poly-lysine coated, white-walled, white-bottom 96-well plate. Directly after cell loading, 50 μL of the mixture containing Lipofectamine 2000 and the DNA was added on top of the cells. The cells were then left to incubate at 37° C., 5% CO2, 95% relative humidity for 20 h, after which, 150 μL media was refreshed. Cells were assayed 48 h post-transfection. Cells were washed with 150 μL PBS, then 40 μL BRET buffer (HBSS, 0.2% Glucose) was added to each well. Coelenterazine 400a was first added at a final concentration of 2.5 μM and BRET ratios were measured once using Mithras^2 LB 943 plate reader. After the first measurement, […] agonist solution was added to each well and BRET ratios were measured for another 30 min using Mithras^2 LB 943 plate reader. Mock-transfected controls were subtracted from the data. Maximum values were then plotted against selected concentrations and fitted to a sigmoidal curve. (n=3, SD plotted)

CXCR4 [3] = assay: Calcium mobilization assay in transfected HEK 293T cells; format: cell-based, human; details: designed receptor vs WT CXCR4, CXCL12-derived peptide, HEK cells
Procedure: as §1

CXCR4 [4] = assay: Gαi dissociation BRET (Gi activation) in transfected HEK 293T cells; format: cell-based, human; details: for enhanced potency in G-coupling (Gi): designed receptor vs WT CXCR4 scaffold, against WT CXCL12 peptide
Procedure: as §2

T2 sequence (P61073 whole entry N37A/Y45F/S285M): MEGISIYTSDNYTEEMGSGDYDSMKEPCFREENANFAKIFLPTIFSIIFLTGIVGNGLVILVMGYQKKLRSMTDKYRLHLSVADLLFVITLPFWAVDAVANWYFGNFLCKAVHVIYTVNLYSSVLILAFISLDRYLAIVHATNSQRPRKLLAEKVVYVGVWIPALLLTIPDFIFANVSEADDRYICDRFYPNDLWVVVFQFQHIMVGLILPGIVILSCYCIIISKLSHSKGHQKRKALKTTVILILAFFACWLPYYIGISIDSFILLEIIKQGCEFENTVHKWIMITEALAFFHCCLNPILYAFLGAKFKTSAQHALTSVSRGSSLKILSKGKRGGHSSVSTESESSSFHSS

- calcium release (CXCR4 [1]): Enhanced
B1: L41A CXCR4: CXCR4 point mutant L41A (protein)
chain: MEGISIYTSDNYTEEMGSGDYDSMKEPCFREENANFNKIFAPTIYSIIFLTGIVGNGLVILVMGYQKKLRSMTDKYRLHLSVADLLFVITLPFWAVDAVANWYFGNFLCKAVHVIYTVNLYSSVLILAFISLDRYLAIVHATNSQRPRKLLAEKVVYVGVWIPALLLTIPDFIFANVSEADDRYICDRFYPNDLWVVVFQFQHIMVGLILPGIVILSCYCIIISKLSHSKGHQKRKALKTTVILILAFFACWLPYYIGISIDSFILLEIIKQGCEFENTVHKWISITEALAFFHCCLNPILYAFLGAKFKTSAQHALTSVSRGSSLKILSKGKRGGHSSVSTESESSSFHSS

- sensitivity to CXCL12 (CXCR4 [2]): enhanced sensitivity
B2: Cdes1: first-generation combinatorial design CXCR4 receptor variant with binding hotspot motif at TM1/7 interface (protein)
chain: B1 chain with N37A, A41L, Y45F, S285M
modifications: Cdes1

B3: Cdes2: second-generation combinatorial design CXCR4 variant combining the 2 designed binding hotspot motifs (protein)
chain: B1 chain with N37A, A41L, Y45F, S178F, D181Q, I185V, S285M
modifications: Cdes2
- enhanced potency in calcium mobilization (CXCR4 [3]): 3.1 fold over WT
- enhanced potency in G-coupling (Gi) (CXCR4 [4]): 3.2 fold over WT

B4: Ldes: CXCR4 variant assembled from activating point mutations on TM1, TM3 and ECL2 of the point mutant library (protein)
chain: B1 chain with A41I, H113N, S178A
modifications: Ldes
- enhanced potency in G-coupling (Gi) (CXCR4 [4]): ~11 fold over WT
- higher Gi efficacy (CXCR4 [4]; designed receptor vs starting CXCR4 WT scaffold, WT CXCL12 peptide): 120%

B5: CLdes: CXCR4 variant combining the H113N mutation with the Cdes2 design (protein)
chain: B1 chain with N37A, A41L, Y45F, H113N, S178F, D181Q, I185V, S285M
modifications: CLdes
notes: CXCR4 variant combining the H113N mutation with the Cdes2 design
- enhanced potency in G-coupling (Gi) (CXCR4 [4]): more than 9 fold over WT
